B1: MNAT1 (parent)
chain: SLREYNDFLEEVEEIVFNLTNNVD

Variants of: B1
Assay: protein stability index of a GFP-peptide fusion (GPS, HEK-293T) (PSI 1-6); higher = more stable
Conditions: c terminus: a fixed tail appended
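Also: lentivirally expressed fusions sorted by FACS into six bins by GFP to DsRed ratio, PSI derived from sequencing read proportions per bin multiplied by bin number.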

| Variant | protein stability index |
| --- | --- |
| SLREYNDFLEEVEEQVFNLTNNVD | 3.87 |
| SLREYNDFLEEVEENVFNLTNNVD | 4.25 |
| SLREYNDFLEEVEEEVFNLTNNVD | 4.66 |
| SLREYNDFLEEVEEIVFNLVNNVD | 1.33 |
| SLREYNDFLEEVEEIVFNLWNNVD | 2 |
| SLREYNDFLEEVEEIVFNLRNNVD | 2.46 |
| SLREYNDFLEEVEEIVFNLMNNVD | 1.86 |
| SLREYNDFLEEVEEIVFNLFNNVD | 1.5 |
| SLREYNDFLEEVEEIVFNLPNNVD | 3.19 |
| SIREYNDFLEEVEEIVFNLTNNVD | 2.31 |
| SKREYNDFLEEVEEIVFNLTNNVD | 2.6 |
| SSREYNDFLEEVEEIVFNLTNNVD | 2.71 |
| SHREYNDFLEEVEEIVFNLTNNVD | 3.09 |
| SAREYNDFLEEVEEIVFNLTNNVD | 2.58 |
| SPREYNDFLEEVEEIVFNLTNNVD | 3.72 |
| SMREYNDFLEEVEEIVFNLTNNVD | 2.13 |
| SLREYNDFLEEVEEIVFNMTNNVD | 2.89 |
| SLREYNDFLEEVEEIVFNFTNNVD | 2.24 |
| SLREYNDFLEEVEEIVFNATNNVD | 3.2 |
| SLREYNDFLEEVEEIVFNDTNNVD | 4.43 |
| SLREYNDFLEEVEEIVFNETNNVD | 4.55 |
| SLREYNDFLEEVEEIVFNPTNNVD | 4.05 |
| SLREYNDFLEEVEEIVFNTTNNVD | 3.6 |
| SLREYNDFLEEVEEIVENLTNNVD | 3.34 |

| Variant | protein stability index |
| --- | --- |
| SLREYNDFLEEVEEIVGNLTNNVD | 3.4 |
| SLREYNDFLEEVEEIVDNLTNNVD | 3.2 |
| SLREYNDFLEEVEEIVYNLTNNVD | 1.91 |
| SLREYNDFLEEVEEIVPNLTNNVD | 4 |
| SLREYNDFLEEVEEIVMNLTNNVD | 2.57 |
| SLREYNDFLEEVEEIVHNLTNNVD | 3.15 |
| SLREYNDFLEEVEEIVQNLTNNVD | 2.78 |
| SLREYNDFLEEVEEIVSNLTNNVD | 3.11 |
| SLREYNDFLEEVEEIVVNLTNNVD | 2.82 |
| SLREHNDFLEEVEEIVFNLTNNVD | 3.81 |
| SLREENDFLEEVEEIVFNLTNNVD | 4.35 |
| SLREGNDFLEEVEEIVFNLTNNVD | 3.91 |
| SLREDNDFLEEVEEIVFNLTNNVD | 2.23 |
| SLREPNDFLEEVEEIVFNLTNNVD | 3.81 |
| SLRESNDFLEEVEEIVFNLTNNVD | 4.29 |
| SLREYNDFLEEVEEIVFNLTNNVP | 2 |
| SLREYNDFLEEVEEIVFNLTNNVN | 1.31 |
| SLREYNDFLEEVEEIVFNLTNNVK | 1.81 |
| SLREYNDFLEEVEEIVFNLTNNVY | 1.9 |
| SLREYNDFLEEVEEIVFNLTNNVT | 1.82 |
| SLREYNDFLEEVEEIVFNLTNNVV | 1.65 |
| SLREYNDFLEEVEEIVFNLTNNVF | 1.87 |
| SLREYNGFLEEVEEIVFNLTNNVD | 1.75 |
| SLREYNKFLEEVEEIVFNLTNNVD | 1.58 |

| Variant | protein stability index |
| --- | --- |
| SLREYNCFLEEVEEIVFNLTNNVD | 2.27 |
| SLREYNQFLEEVEEIVFNLTNNVD | 1.83 |
| SLREYNRFLEEVEEIVFNLTNNVD | 1.63 |
| SLREYNTFLEEVEEIVFNLTNNVD | 1.47 |
| SLREYNDFLWEVEEIVFNLTNNVD | 1.95 |
| SLREYNDFLSEVEEIVFNLTNNVD | 2.41 |
| SLREYNDFLTEVEEIVFNLTNNVD | 2.01 |
| SLREYNDFLAEVEEIVFNLTNNVD | 1.58 |
| SLREYNDFLREVEEIVFNLTNNVD | 1.86 |
| SLREYNDFLPEVEEIVFNLTNNVD | 3.54 |
| SLREYNDFLCEVEEIVFNLTNNVD | 2.74 |
| SLREYNDFLDEVEEIVFNLTNNVD | 1.95 |
| SLREYNDFLQEVEEIVFNLTNNVD | 2.62 |
| SLREYDDFLEEVEEIVFNLTNNVD | 2.4 |
| SLREYMDFLEEVEEIVFNLTNNVD | 1.76 |
| SLREYQDFLEEVEEIVFNLTNNVD | 1.75 |
| SLREYPDFLEEVEEIVFNLTNNVD | 3.08 |
| SLREYEDFLEEVEEIVFNLTNNVD | 1.76 |
| SLREYSDFLEEVEEIVFNLTNNVD | 3.31 |
| SLREYCDFLEEVEEIVFNLTNNVD | 1.78 |
| SLREYTDFLEEVEEIVFNLTNNVD | 2.27 |
| SLREYNDFLEIVEEIVFNLTNNVD | 1.89 |
| SLREYNDFLEHVEEIVFNLTNNVD | 2.07 |
| SLREYNDFLEEAEEIVFNLTNNVD | 3.22 |

| Variant | protein stability index |
| --- | --- |
| SLREYNDFLEEYEEIVFNLTNNVD | 3.04 |
| SLREYNDFLEEQEEIVFNLTNNVD | 4.08 |
| SLREYNDFLEEWEEIVFNLTNNVD | 1.87 |
| SLREYNDFLEEGEEIVFNLTNNVD | 4.16 |
| SLREYNDFLEECEEIVFNLTNNVD | 2.9 |
| SLREYNDFLEEDEEIVFNLTNNVD | 4.97 |
| SLREYNDFLEEKEEIVFNLTNNVD | 4.72 |
| SLREYNDFLEELEEIVFNLTNNVD | 1.09 |
| SLREYNDFLEEVEEIHFNLTNNVD | 3.86 |
| SLREYNDFLEEVEEISFNLTNNVD | 4.58 |
| SLREYNDFLEEVEEIEFNLTNNVD | 4.36 |
| SLREYNDFLEEVEEIKFNLTNNVD | 2.84 |
| SLREYNDFLEEVEEIGFNLTNNVD | 3.86 |
| SLREYNDFLEEVEEIWFNLTNNVD | 2.83 |
| SLREYNDFLEEVEEILFNLTNNVD | 1.14 |
| SLREYNDFLEEVEEIYFNLTNNVD | 2.63 |
| SLREYNDFLEEVEEITFNLTNNVD | 3.21 |
| SLRTYNDFLEEVEEIVFNLTNNVD | 1.72 |
| SLRMYNDFLEEVEEIVFNLTNNVD | 2.26 |
| SLRQYNDFLEEVEEIVFNLTNNVD | 2.27 |
| SLRPYNDFLEEVEEIVFNLTNNVD | 2.98 |
| SLRDYNDFLEEVEEIVFNLTNNVD | 2.19 |

From the supplement of paper PMC10567573
